PMC8131196, “Structure and dynamics of a mycobacterial type VII secretion system” (Nature, 2021)

What was measured:
Assay in all cases: cryo-EM structure
[1] = biological target: T1, EccB5 (M. tuberculosis H37Rv, UniProt P9WNQ9 1-506); conditions: both partners purified
T1 construct: also called inner EccB5; outer EccB5
T1 sequence: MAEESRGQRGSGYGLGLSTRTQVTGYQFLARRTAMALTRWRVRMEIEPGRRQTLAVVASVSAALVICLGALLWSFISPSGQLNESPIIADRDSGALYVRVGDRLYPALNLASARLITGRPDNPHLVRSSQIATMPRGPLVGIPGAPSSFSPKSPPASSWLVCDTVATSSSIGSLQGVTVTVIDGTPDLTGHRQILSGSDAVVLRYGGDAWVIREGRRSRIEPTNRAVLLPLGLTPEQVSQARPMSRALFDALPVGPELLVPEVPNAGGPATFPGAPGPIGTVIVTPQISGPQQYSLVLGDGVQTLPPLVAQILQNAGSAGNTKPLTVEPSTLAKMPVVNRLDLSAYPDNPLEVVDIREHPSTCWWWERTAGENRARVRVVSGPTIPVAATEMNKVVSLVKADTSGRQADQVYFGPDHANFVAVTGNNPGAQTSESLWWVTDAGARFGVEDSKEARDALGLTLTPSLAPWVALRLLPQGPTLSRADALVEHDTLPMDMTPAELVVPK

[2] = biological target: T2, EccC5 (M. tuberculosis H37Rv, UniProt P9WNA5 1-1391); conditions: both partners purified
T2 construct: also called EccC5 ATPase; not shown: TwinStrep, C-terminal, kept
T2 sequence: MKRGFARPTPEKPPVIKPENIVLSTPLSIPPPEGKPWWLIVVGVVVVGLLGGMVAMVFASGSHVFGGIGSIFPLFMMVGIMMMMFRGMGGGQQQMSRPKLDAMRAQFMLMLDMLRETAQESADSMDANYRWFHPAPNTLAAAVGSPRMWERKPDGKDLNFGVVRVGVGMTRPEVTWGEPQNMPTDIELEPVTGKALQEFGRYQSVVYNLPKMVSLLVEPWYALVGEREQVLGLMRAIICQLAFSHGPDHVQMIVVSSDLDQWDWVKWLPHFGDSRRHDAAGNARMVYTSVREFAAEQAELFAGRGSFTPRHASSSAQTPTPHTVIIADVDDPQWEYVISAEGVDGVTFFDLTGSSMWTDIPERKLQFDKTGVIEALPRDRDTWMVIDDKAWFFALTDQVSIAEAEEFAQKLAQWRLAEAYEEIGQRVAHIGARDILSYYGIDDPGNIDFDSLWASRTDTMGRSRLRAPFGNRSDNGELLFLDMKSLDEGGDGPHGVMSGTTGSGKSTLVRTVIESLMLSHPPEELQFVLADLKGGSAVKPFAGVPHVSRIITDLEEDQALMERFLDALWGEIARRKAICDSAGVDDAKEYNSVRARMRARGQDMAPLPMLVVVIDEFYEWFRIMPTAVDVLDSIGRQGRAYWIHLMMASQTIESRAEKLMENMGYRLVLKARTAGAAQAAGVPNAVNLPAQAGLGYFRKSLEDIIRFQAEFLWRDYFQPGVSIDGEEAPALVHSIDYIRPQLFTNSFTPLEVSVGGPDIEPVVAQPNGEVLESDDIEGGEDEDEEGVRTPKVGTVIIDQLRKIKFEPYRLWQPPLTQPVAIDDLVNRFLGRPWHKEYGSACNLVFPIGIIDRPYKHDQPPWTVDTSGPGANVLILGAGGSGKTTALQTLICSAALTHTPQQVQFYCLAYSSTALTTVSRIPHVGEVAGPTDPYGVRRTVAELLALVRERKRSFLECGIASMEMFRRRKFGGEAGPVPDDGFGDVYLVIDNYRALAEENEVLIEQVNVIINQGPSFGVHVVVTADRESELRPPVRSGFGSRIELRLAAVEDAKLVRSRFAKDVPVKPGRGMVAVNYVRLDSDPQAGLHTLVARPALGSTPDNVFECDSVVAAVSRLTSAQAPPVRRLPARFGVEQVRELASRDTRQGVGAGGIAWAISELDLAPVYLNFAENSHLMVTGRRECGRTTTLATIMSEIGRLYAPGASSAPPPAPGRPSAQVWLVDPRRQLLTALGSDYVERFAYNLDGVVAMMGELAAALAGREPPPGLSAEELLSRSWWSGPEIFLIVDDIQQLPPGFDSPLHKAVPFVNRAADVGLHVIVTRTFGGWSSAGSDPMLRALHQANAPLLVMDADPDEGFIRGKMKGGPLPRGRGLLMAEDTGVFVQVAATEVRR

[3] = biological target: T3, MycP5 protease (M. tuberculosis H37Rv, UniProt O53945 40-585); conditions: both partners purified
T3 construct: also called mycosin
T3 sequence: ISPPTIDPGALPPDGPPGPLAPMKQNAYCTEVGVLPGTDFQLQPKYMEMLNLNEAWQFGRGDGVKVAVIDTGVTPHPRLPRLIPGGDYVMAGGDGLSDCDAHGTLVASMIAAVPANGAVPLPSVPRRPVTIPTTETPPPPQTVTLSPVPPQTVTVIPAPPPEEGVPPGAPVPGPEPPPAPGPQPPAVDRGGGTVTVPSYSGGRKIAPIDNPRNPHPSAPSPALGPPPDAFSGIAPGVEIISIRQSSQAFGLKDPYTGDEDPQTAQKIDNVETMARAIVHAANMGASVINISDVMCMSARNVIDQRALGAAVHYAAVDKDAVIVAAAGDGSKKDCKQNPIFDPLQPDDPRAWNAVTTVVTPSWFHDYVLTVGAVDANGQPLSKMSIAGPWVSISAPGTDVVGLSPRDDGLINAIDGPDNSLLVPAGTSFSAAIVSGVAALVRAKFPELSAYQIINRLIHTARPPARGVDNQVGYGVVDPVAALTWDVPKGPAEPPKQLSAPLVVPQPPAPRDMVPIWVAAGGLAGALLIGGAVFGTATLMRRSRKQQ

[4] = biological target: the molecule itself

B1: EccD5 (natural protein)
chain: MTAVADAPQADIEGVASPQAVVVGVMAGEGVQIGVLLDANAPVSVMTDPLLKVVNSRLRELGEAPLEATGRGRWALCLVDGAPLRATQSLTEQDVYDGDRLWIRFIADTERRSQVIEHISTAVASDLSKRFARIDPIVAVQVGASMVATGVVLATGVLGWWRWHHNTWLTTIYTAVIGVLVLAVAMLLLMRAKTDADRRVADIMLMSAIMPVTVAAAAAPPGPVGSPQAVLGFGVLTVAAALALRFTGRRLGIYTTIVIIGALTMLAALARMVAATSAVTLLSSLLLICVVAYHAAPALSRRLAGIRLPVFPSATSRWVFEARPDLPTTVVVSGGSAPVLEGPSSVRDVLLQAERARSFLSGLLTGLGVMVVVCMTSLCDPHTGQRWLPLILAGFTSGFLLLRGRSYVDRWQSITLAGTAVIIAAAVCVRYALELSSPLAVSIVAAILVLLPAAGMAAAAHVPHTIYSPLFRKFVEWIEYLCLMPIFPLALWLMNVYAAIRYR
notes: also called inner EccD5; outer EccD5
[1]
  binding result: binds
[2]
  binding result: binds
[3]
  binding result: binds
[4]
  stoichiometry N: 2
